Results reported in US6933284 (University of California, dated 2005).
One block for each binder: values may come before it.

What was measured:
[1] = molecular target: T1, recombinant control LDL without the 'Leu-Leu' mutation (LDL generated by the unmodified apo-B100 P1 … (human, UniProt P04114 28-4563)); assay: gel-mobility shift, data not shown
T1 construct: mature; Tested as an LDL particle
Protocol: (§1) Before the assay, the (^35S)biglycan and (^35S)versican preparations were dialyzed extensively at 4° C. against 10 mM HEPES, 150 mM NaCl, 5 mM CaCl_2, and 2 mM MgCl_2 (pH 7.4, Buffer A), and the protein concentrations were determined (BioRad Laboratories) with bovine gamma globulin as the standard. Increasing concentrations of LDL were incubated with approximately 2000 dpm of (^35S)biglycan or (^35S)versican for 1 h at 37° C. in a total volume of 20 μl of Buffer A. Three microliters of bromophenol blue:glycerol (1:1, v/v) was added to the samples, and 20 μl was loaded into wells of 0.7% NuSieve (FMC BioProducts) agarose gels prepared on Gel-Bond film (FMC BioProducts). Electrophoresis was run for 3 h at 60V with recirculating buffer (10 mM HEPES, 2 mM CaCl_2, 4 mM MgCl_2 pH 7.2) in a cold room. Gels were fixed with 0.1% cetyl pyridium chloride in 70% ethanol for 90 min, air-dried, and exposed to Hyper Film-MP (Amersham Life Sciences) at ^-70° C. The (^35S)biglycan or (^35S)versican complexed to LDL appears as a band at the […] with a Hewlett Packard Scan Jet II cx and ImageQuant software (Molecular Dynamics).
This procedure has the advantages that only microgram quantities of lipoproteins are required and the relative affinity of LDL binding to the proteoglycans can be determined at physiological ionic and pH conditions. […]

[2] = molecular target: T2, RK3359-3369SA LDL (recombinant LDL, human apo-B100 with the arginines of Site B changed to serines and the … (human, UniProt P04114 28-4563)); assay: gel-mobility shift, three independent experiments
T2 construct: mature; Tested as a purified LDL particle from transgenic mouse plasma; Q2153L follows from the statement that R3500Q is the only LDL without the 'Leu-Leu' mutation; also called recombinant LDL with the uncharged Site B
Protocol: as §1, with “The interaction between LDL and biglycan or versican was investigated by a gel-mobility shift assay (Camejo, G. et al. 1993. *J. Biol Chem.* 268:14131–14137). Before” for “Before”
(§2) This procedure has the advantages that only microgram quantities of lipoproteins are required and the relative affinity of LDL binding to the proteoglycans can be determined at physiological ionic and pH conditions. […] Of particular interest was that recombinant K3363E LDL interacted defectively with both versican and biglycan but had normal receptor binding.

[3] = molecular target: T3, K3363E LDL (recombinant LDL, human apo-B100 with glutamic acid for lysine at residue 3363) (human, UniProt P04114 28-4563); assay: gel-mobility shift, three independent experiments
T3 construct: mature; Tested as a purified LDL particle from transgenic mouse plasma
Protocol: as §1, with “The interaction between LDL and biglycan or versican was investigated by a gel-mobility shift assay (Camejo, G. et al. 1993. *J. Biol Chem.* 268:14131–14137). Before” for “Before”
as §2

[4] = molecular target: T4, human plasma LDL (human, UniProt P04114 28-4563, 125I-labeled where used as tracer in the receptor assay); assay: gel-mobility shift, three independent experiments
T4 construct: mature; Native LDL particle; also called normal human plasma LDL
Protocol: as §1, with “The interaction between LDL and biglycan or versican was investigated by a gel-mobility shift assay (Camejo, G. et al. 1993. *J. Biol Chem.* 268:14131–14137). Before” for “Before”
as §2

[5] = molecular target: T5, recombinant control LDL (human apo-B100 with leucine in place of glutamine at position 2153) (human, UniProt P04114 28-4563); assay: summary table, proteoglycan binding (biglycan and versican were the proteoglycans tested)
T5 construct: mature; one apo-B100 per particle, with lipid; also called wild-type recombinant LDL; 'Leu-Leu' apo-B100 LDL

[6] = molecular target: T5, recombinant control LDL (human apo-B100 …); assay: summary table, LDL receptor binding
[7] = molecular target: T3, K3363E LDL (recombinant LDL, human …); assay: summary table, LDL receptor binding
[8] = molecular target: T1, recombinant control LDL without the …; assay: receptor-binding activity, details not given

binding result [1]: binds | binding result [2]: binds | binding result [3]: binds | binding result [4]: binds | binding result [5]: binds
B1: (35S)biglycan from cultured human arterial smooth muscle cells (other, UniProt P21810 38-368, looked up)
chain: DEEASGADTSGVLDPDSVTPTYSAMCPFGCHCHLRVVQCSDLGLKSVPKEISPDTTLLDLQNNDISELRKDDFKGLQHLYALVLVNNKISKIHEKAFSPLRKLQKLYISKNHLVEIPPNLPSSLVELRIHDNRIRKVPKGVFSGLRNMNCIEMGGNPLENSGFEPGAFDGLKLNYLRISEAKLTGIPKDLPETLNELHLDHNKIQAIELEDLLRYSKLYRLGLGHNQIRMIENGSLSFLPTLRELHLDNNKLARVPSGLPDLKLLQVVYLHSNNITKVGVNDFCPMGFGVKRAYYNGISLFNNPVPYWEVQPATFRCVTDRLAIQFGNYKK
modifications: glycosaminoglycan chains metabolically labeled with (35S)SO4
notes: Proteoglycan: core protein with glycosaminoglycan chains; also called pool 3

binding result [6]: binds | binding result [7]: binds | binding result [8]: binds
B2: LDL receptor on normal human fibroblasts (receptor)
chain: not shown
notes: whole, on cells; also called LDL receptors
